From the supplement of paper PMC10567573

B1: TRAF3IP2 (parent)
chain: APWNYHYHCPGSPDHQVPYGHDYP
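Also: lentivirally expressed fusions sorted by FACS into six bins by GFP to DsRed ratio, PSI derived from sequencing read proportions per bin multiplied by bin number.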

Variants of: B1
Experiment: protein stability index of a GFP-peptide fusion (GPS, HEK-293T) (PSI 1-6); higher = more stable
Settings: c terminus: a fixed tail appended
APWNYHYWCPGSPDHQVPYGHDYP gave a protein stability index of 2.26. APWNYHYYCPGSPDHQVPYGHDYP gave a protein stability index of 1.84. Work on APWNYHYTCPGSPDHQVPYGHDYP yielded a protein stability index of 2.41. Variant APWNYHYVCPGSPDHQVPYGHDYP has a protein stability index of 1.95. Variant APWNYHYHCPDSPDHQVPYGHDYP has a protein stability index of 2.21. For APWNYHYHCPCSPDHQVPYGHDYP, the protein stability index was 2.02. With APWNYHYHCPKSPDHQVPYGHDYP the protein stability index was 1.92. Work on APWNYHYHCPVSPDHQVPYGHDYP yielded a protein stability index of 2.08. In the case of APWNYHYHCPMSPDHQVPYGHDYP, the protein stability index is reported as 3.15. APWNYHYHCPFSPDHQVPYGHDYP gave a protein stability index of 2.73. Variant APWNYHYHCPSSPDHQVPYGHDYP has a protein stability index of 2.12. In the case of APWNYHYHCPRSPDHQVPYGHDYP, the protein stability index is reported as 2.04. Variant APWNYHYHCPPSPDHQVPYGHDYP has a protein stability index of 1.91. With APWNYHYHCPWSPDHQVPYGHDYP the protein stability index was 2.18. Work on APWNYHYHCPYSPDHQVPYGHDYP yielded a protein stability index of 1.37. For APWNYHYHCPLSPDHQVPYGHDYP, the protein stability index was 2.31. Variant APWNYHYHCPESPDHQVPYGHDYP has a protein stability index of 2.06. For APWNYHYHCPQSPDHQVPYGHDYP, the protein stability index was 1.63. Variant APWNYHYHCPTSPDHQVPYGHDYP has a protein stability index of 2.18. With APWNYHYHCPISPDHQVPYGHDYP the protein stability index was 1.63. In the case of APWNYHYHCPHSPDHQVPYGHDYP, the protein stability index is reported as 2.11. APWNYHYHCPNSPDHQVPYGHDYP showed a protein stability index of 1.87. APWNYHYHCPASPDHQVPYGHDYP gave a protein stability index of 2.55. With APWNYHYHCPGSKDHQVPYGHDYP the protein stability index was 1.84. For APWNYHYHCPGSIDHQVPYGHDYP, the protein stability index was 1.87. In the case of APWNYHYHCPGSSDHQVPYGHDYP, the protein stability index is reported as 2.14. With APWNYHYHCPGSGDHQVPYGHDYP the protein stability index was 2.05. For APWNYHYHCPGSHDHQVPYGHDYP, the protein stability index was 1.79. APWNYHYHCPGSADHQVPYGHDYP gave a protein stability index of 3.02. In the case of APWNYHYHCPGSDDHQVPYGHDYP, the protein stability index is reported as 2.4. APWNYHYHCPGSMDHQVPYGHDYP showed a protein stability index of 2.12. APWNYHYHCPGSFDHQVPYGHDYP gave a protein stability index of 2.78. APWNYHYHCPGSLDHQVPYGHDYP gave a protein stability index of 2.16. Variant APWNYHYHCPGSQDHQVPYGHDYP has a protein stability index of 2.5. APWNYHYHCPGSNDHQVPYGHDYP gave a protein stability index of 1.83. Work on APWNYHYHCPGSEDHQVPYGHDYP yielded a protein stability index of 3.05. With APWNYHYHCPGSCDHQVPYGHDYP the protein stability index was 1.94. In the case of APWNYHYHCPGSRDHQVPYGHDYP, the protein stability index is reported as 2.33. Work on APWNYHYHCLGSPDHQVPYGHDYP yielded a protein stability index of 1.54. For APWNYHYHCHGSPDHQVPYGHDYP, the protein stability index was 1.96. Work on APWNYHYHCIGSPDHQVPYGHDYP yielded a protein stability index of 1.66. APWNYHYHCKGSPDHQVPYGHDYP gave a protein stability index of 2.4. Work on APWNYHYHCGGSPDHQVPYGHDYP yielded a protein stability index of 1.71. With APWNYHYHCCGSPDHQVPYGHDYP the protein stability index was 1.5. Work on APWNYHYHCFGSPDHQVPYGHDYP yielded a protein stability index of 2.07. In the case of APWNYHYHCVGSPDHQVPYGHDYP, the protein stability index is reported as 2.09. Work on APWNYHYHCMGSPDHQVPYGHDYP yielded a protein stability index of 2.02. APWNYHYHCRGSPDHQVPYGHDYP showed a protein stability index of 1.29. With APWNYHYHCDGSPDHQVPYGHDYP the protein stability index was 2.31. With APWNYHYHCNGSPDHQVPYGHDYP the protein stability index was 2.08. For APWNYHYHCAGSPDHQVPYGHDYP, the protein stability index was 1.69. For APWNYHYHCYGSPDHQVPYGHDYP, the protein stability index was 2.13. For APWNYHYHCEGSPDHQVPYGHDYP, the protein stability index was 2.27. In the case of APWNYHYHCWGSPDHQVPYGHDYP, the protein stability index is reported as 1.46. Variant APWNYHYHCSGSPDHQVPYGHDYP has a protein stability index of 2.08. APWNYHYHCTGSPDHQVPYGHDYP showed a protein stability index of 1.86. APWNYHYHCQGSPDHQVPYGHDYP gave a protein stability index of 2.04. With APWNYHYHEPGSPDHQVPYGHDYP the protein stability index was 2.55. With APWNYHYHHPGSPDHQVPYGHDYP the protein stability index was 2.28. With APWNYHYHDPGSPDHQVPYGHDYP the protein stability index was 2.59. Work on APWNYHYHGPGSPDHQVPYGHDYP yielded a protein stability index of 2.05. With APWNYHYHPPGSPDHQVPYGHDYP the protein stability index was 1.9. APWNYHYHLPGSPDHQVPYGHDYP showed a protein stability index of 1.98. For APWNYHYHMPGSPDHQVPYGHDYP, the protein stability index was 2.73. For APWNYHYHIPGSPDHQVPYGHDYP, the protein stability index was 1.85. APWNYHYHTPGSPDHQVPYGHDYP gave a protein stability index of 1.69. With APWNYHYHYPGSPDHQVPYGHDYP the protein stability index was 2.16. APWNYHYHQPGSPDHQVPYGHDYP showed a protein stability index of 2.16. APWNYHYHKPGSPDHQVPYGHDYP showed a protein stability index of 2.66. Variant APWNYHYHWPGSPDHQVPYGHDYP has a protein stability index of 1.78. For APWNYHYHFPGSPDHQVPYGHDYP, the protein stability index was 1.93. Work on APWNYHYHRPGSPDHQVPYGHDYP yielded a protein stability index of 2.52. APWNYHYHVPGSPDHQVPYGHDYP gave a protein stability index of 2.7. Variant APWNYHYHNPGSPDHQVPYGHDYP has a protein stability index of 2.17. Work on APWNYHYHSPGSPDHQVPYGHDYP yielded a protein stability index of 2.52. In the case of APWNYHYHAPGSPDHQVPYGHDYP, the protein stability index is reported as 2.08. APWNYHYHCPGNPDHQVPYGHDYP gave a protein stability index of 1.6. Work on APWNYHYHCPGTPDHQVPYGHDYP yielded a protein stability index of 2.35. Work on APWNYHYHCPGAPDHQVPYGHDYP yielded a protein stability index of 2.07. APWNYHYHCPGDPDHQVPYGHDYP gave a protein stability index of 2.49. APWNYHYHCPGCPDHQVPYGHDYP showed a protein stability index of 2.75. With APWNYHYHCPGLPDHQVPYGHDYP the protein stability index was 2.47. Work on APWNYHYHCPGRPDHQVPYGHDYP yielded a protein stability index of 2.47. APWNYHYHCPGQPDHQVPYGHDYP showed a protein stability index of 2.5. Variant APWNYHYHCPGGPDHQVPYGHDYP has a protein stability index of 2.36. Variant APWNYHYHCPGYPDHQVPYGHDYP has a protein stability index of 2.21. Work on APWNYHYHCPGEPDHQVPYGHDYP yielded a protein stability index of 2.37. For APWNYHYHCPGKPDHQVPYGHDYP, the protein stability index was 2.21. With APWNYHYHCPGFPDHQVPYGHDYP the protein stability index was 1.7. With APWNYHYHCPGHPDHQVPYGHDYP the protein stability index was 2.23. For APWNYHYHCPGVPDHQVPYGHDYP, the protein stability index was 2.2. With APWNYHYHCPGMPDHQVPYGHDYP the protein stability index was 1.96. For APWNYHYHCPGWPDHQVPYGHDYP, the protein stability index was 2. Work on APWNYHYHCPGIPDHQVPYGHDYP yielded a protein stability index of 2.27.
